Measured values from patent US20180271960A1, “METHOD TO TREAT CANCER USING ARGININE DELPETOR AND ORNITHINE DECARBOXYLASE (ODC) INHIBITOR” (Bio-Cancer Treatment International Ltd., priority 2015, published 2018).
“Also recorded” adds a separate entry of the source.

Key:
[1] = tested on: Kasumi-1 leukemia xenograft; test: Kasumi-1 leukemia xenograft model; type: in vivo, mouse; conditions: Kasumi-1 xenograft; for anti-tumour effect: PEG-BCT-100 20 mg/kg IV twice a week, DFMO 2% w/v in drinking water
Description: (§1) In one example embodiment, the Kasumi-1 tumour cells are maintained in vitro as a suspension culture in RPMI1640 medium supplemented with 10% heat inactivated fetal bovine serum at 37° C. in an atmosphere of 5% CO2 in air. The tumour cells are routinely sub-cultured twice weekly. The cells growing in an exponential growth phase are harvested and counted for tumour inoculation.
All mice are γ-irradiated (200 rad) for 24 h before tumour cell injection. Kasumi-1 tumour cells (1×10^7) in 0.2 ml of PBS are mixed with cultrex in a 1:1 ratio. Each mouse is inoculated subcutaneously at the right flank region with the tumour cells suspension for tumour development. The treatments start when the mean tumour size reached 114 mm^3. The date of tumour cell inoculation is denoted as day 0.
(§2) Four treatment groups of animals, with eight animals in each group, are tested. Control group (negative control) receives physiological saline, and the three treatment groups respectively receive 20 mg/kg of PEG-BCT-100 alone, 2% w/v DFMO in drinking water, and combination of 20 mg/kg of PEG-BCT-100 and 2% w/v DFMO. PEG-BCT-100 is administered intravenously, twice a week, until euthanization while DFMO is supplied in drinking water at 2% w/v.

[2] = tested on: SU-DHL-6 B cell lymphoma xenograft; test: SU-DHL-6 B cell lymphoma xenograft model; type: in vivo, mouse; conditions: SU-DHL-6 xenograft; PEG-BCT-100 20 mg/kg IV twice a week; DFMO 2% w/v in drinking water
Description: as §1, with “SU-DHL-6 human lymphoma” for “Kasumi-1 tumour”
One day before tumour inoculation, all mice are sub-lethally irradiated with 60Co (200 rad). Each mouse is inoculated subcutaneously at the right flank region with SU-DHL-6 tumour cells (5×10^6) in 0.1 ml of PBS/Matrigel (1:1) for tumour development. The treatments start when the mean tumour size reaches 125 mm^3. The date of tumour cell inoculation is denoted as day 0.
as §2, with “Four groups of” for “Four treatment groups of”, “water, and a combination of” for “water, and combination of”

K-562 leukemia xenograft = K-562 leukemia xenograft model; type: in vivo, mouse; conditions: K-562 xenograft; PEG-BCT-100 20 mg/kg IV twice a week; DFMO 2% w/v in drinking water
Description: as §1, with “K-562” for “Kasumi-1”
Each mouse is inoculated subcutaneously at the right flank region with K-562 tumour cells (5×10^6) in 0.1 ml of PBS/Matrigel (1:1) for tumour development. The treatments start when the mean tumour size reaches 125 mm^3. The date of tumour cell inoculation is denoted as day 0.
as §2

[3] = tested on: Hep 3B hepatocellular carcinoma xenograft; test: Hep 3B hepatocellular carcinoma xenograft model; type: in vivo, mouse; conditions: Hep 3B xenograft; PEG-BCT-100 20 mg/kg IV twice a week; DFMO 2% w/v in drinking water
Description: as §1, with “Hep 3B” for “Kasumi-1”, “vitro” for “vitro as a suspension”, “EMEM” for “RPMI1640”
Each mouse is inoculated subcutaneously at the right flank region with Hep 3B tumour cells (5×10^6) in 0.1 ml of PBS (1:1 Matrigel) for tumour development. The treatments start when the mean tumour size reaches 119 mm^3. The date of tumour cell inoculation is denoted as day 0.
as §2

[4] = tested on: H1650 lung adenocarcinoma xenografts; test: H1650 lung adenocarcinoma xenograft; type: in vivo, BALB/c nude mice; conditions: for median survival: PEG-BCT-100 20 mg/kg IP twice a week
Description: In one example embodiment, ten million lung adenocarcinoma cells from cell lines H1650, H1975, and HCC4006 are engrafted subcutaneously in BALB/cnude mice (4 weeks old with body weight of 10-14 g). Body weight, clinical signs and survival times are recorded.
Two groups of the mice, with eight mice in each group, are tested. Control group (negative control) receives physiological saline and treatment group receives 20 mg/kg of PEG-BCT-100. PEG-BCT-100 is administered via intraperitoneal (IP) injection, twice weekly, until euthanization.
In one example embodiment, ten million lung adenocarcinoma cells from cell lines H1650, H1975 and HCC4006 are engrafted subcutaneously in BALB/cnude mice (4 weeks old with body weight of 10-14 g). Body weight, clinical signs and survival times are recorded.
as §2, with “Four” for “Four treatment”, “the mice,” for “animals,”, “mice” for “animals”, “intraperitoneally,” for “intravenously,”

Molecule: NCCC[C@](N)(C(=O)O)C(F)F [DFMO, α-difluoromethylornithine, reference compound]
- TGI ([1]; 2% DFMO in drinking water): 45%
- anti-tumour effect [1]: significant anti-tumour activity
- anti-tumour effect [2]: do not produce a significant anti-tumour effect
- anti-tumour effect (K-562 leukemia xenograft): no significant anti-tumour effect
- anti-tumour effect [3]: significant anti-tumour effect
- median survival ([4]; DFMO 2% w/v in drinking water): 17 days

B1: PEG-BCT-100: pegylated recombinant human arginase I (SEQ ID NO.1, or SEQ ID NO.3 with six histidines), about 6-12 PEG molecules per arginase (protein, UniProt P05089 1-322, looked up)
Arginase-1: MSAKSRTIGIIGAPFSKGQPRGGVEEGPTVLRKAGLLEKLKEQECDVKDYGDLPFADIPNDSPFQIVKNPRSVGKASEQLAGKVAEVKKNGRISLVLGGDHSLAIGSISGHARVHPDLGVIWVDAHTDINTPLTTTSGNLHGQPVSFLLKELKGKIPDVPGFSWVTPCISAKDIVYIGLRDVDPGEHYILKTLGIKYFSMTEVDRLGIGKVMEETLSYLLGRKKRPIHLSFDVDGLDPSFTPATGTPVVGGLTYREGLYITEEIYKTGLLSGLDIMEVNPSLGKTPEEVTRTVNTAVAITLACFGLAREGNHKPIDYLNPPK
modifications: PEG, about 6-12 per arginase; optional His6 tag
- anti-tumour effect [1]: no significant anti-tumour effect
- anti-tumour effect [2]: do not produce a significant anti-tumour effect
- anti-tumour effect (K-562 leukemia xenograft): no significant anti-tumour effect
- anti-tumour effect [3]: does not produce a significant anti-tumour effect
- median survival ([4]; DFMO 2% w/v in drinking water): 10 days
- tumour growth ([4]; PEG-BCT-100 20 mg/kg IP twice weekly, DFMO 2% w/v in drinking water, 20 mg/kg): induces lung adenocarcinoma proliferation; also recorded: promotes tumour growth
- in vivo ASS1 expression (Western blot) ([4]; PEG-BCT-100 20 mg/kg vs control arm): remains unchanged
- in vivo ODC expression (Western blot) ([4]; PEG-BCT-100 20 mg/kg vs control arm, 20 mg/kg): increases; also recorded: over-expressed; also recorded: upregulated
